1 molecule from paper PMC8186250 can be followed below.

The target in the series is EBNA1 DBD WT (Epstein-Barr virus (B95-8), UniProt P03211 459-607). Description: SDS-EMSA.
Chain of EBNA1 DBD WT (P03211 459-607): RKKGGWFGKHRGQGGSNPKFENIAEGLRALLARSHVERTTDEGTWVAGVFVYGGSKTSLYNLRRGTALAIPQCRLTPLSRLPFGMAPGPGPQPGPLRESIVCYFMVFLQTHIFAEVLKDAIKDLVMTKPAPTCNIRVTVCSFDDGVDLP

B1: 2xFR (dsDNA)
DNA 1: ATTAGGATAGCCTATGCTACCCAGATATAGATTAGGATAGCATATGCTACCCAGATATAGAGAGCGTCACCTAAGCC
DNA 2: GGCTTAGGTGACGCTCTATATCTGGGTAGCATATGCTATCCTAATCTATATCTGGGTAGCATAGGCTATCCTAAT
With B1, the binding result was “binds”.
